Data on two molecules can be found in US20090111098A1 (SHIONOGI, published 2009).

Assay [1] concerns the target T1, peptide GPPGPQG (region corresponding to amino acids 769 to 775 of human type 2 collagen) (human).
T1 construct: The immunogen carried an added N-terminal cysteine and was conjugated to BSA; The DELFIA screen was run as for 6G4
T1 peptide: GPPGPQG
The assay is described as follows: property stated for the prepared monoclonal antibody.

In assay [2] the target is T2, peptide GEPGDDAPS (region corresponding to amino acids 757 to 765 of human type 2 collagen) (human).
T2 construct: The immunogen carried an added C-terminal cysteine and was conjugated to KLH
T2 peptide: GEPGDDAPS
The assay is described as above.

B1: 2E6 antibody (monoclonal antibody produced by hybridoma TAG-2E6) (antibody, V domains shown)
VH: QVTLKESGPGILQPSQTLSLTCSFSGFSLSTYGMGVGWIRQPSGKGLEWLAHIWWNDNKYYNTTLKSRLTISKDTSNKQVFLKIASVDTADTATYYCARIERWDPWFAYWGQGTLVTVSA
VL: DVVMTQTPLSLPVSLGDQASISCRSSQSLVYSNGNTYFHWYLQKPGQSPKLLIYKVSNRFSGVPDRFSGSGSGTDFTLKISRVEAEDLGVYFCSQSTHVPLTFGAGTKLELKR
notes: Mouse monoclonal IgG2b (k), 150 kDa; also called XL665-labeled 2E6 antibody; FERM ABP-10482
As to B1, the binding result in assay [1] is listed as “binds”.

B2: 6G4 antibody (monoclonal antibody produced by hybridoma TAG-6G4) (antibody, IgG1, V domains shown)
VH: EVQLVESGGSLVQPGGSLKLSCAASGFTFNNYGMSWVRQIPDKRLELVATITGNGHSTYYPVSVRGRFTISRDNAKNTLYLQMSSLKSEDTAMYYCVRGYSNFAFWGQGTTLTVSS
VL: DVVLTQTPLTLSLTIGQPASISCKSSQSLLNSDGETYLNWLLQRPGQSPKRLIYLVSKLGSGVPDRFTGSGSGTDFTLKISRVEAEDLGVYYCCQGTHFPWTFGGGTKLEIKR
notes: Mouse monoclonal IgG1 (k), 150 kDa; also called cryptate-labeled 6G4 antibody; FERM ABP-10483
B2: the binding result in assay [2] is listed as “binds”.
